Assay results reported in patent publication US11994512B2, “Single-cell genomic methods to generate ex vivo cell systems that recapitulate in vivo biology with improved fidelity” (Massachusetts Institute of Technology, priority 2018, dated 2024).

Test system: intracellular proteome of ENR+CD and ENR organoids
Assay: LC-MS/MS TMT proteomics of ENR+CD versus ENR organoids
Type: cell-based, C57BL/6 mice
Settings: for Average logFC: ENR+CD versus ENR organoids, sample pairs in aggregate (n=4, 2 technical replicates from two biological donors); for M1-1 Log2 Median Normalized / M1-2 Log2 Median Normalized / M2-1 Log2 Median Normalized / M2-2 Log2 Median Normalized: protein abundance ratio ENR+CD versus ENR organoids, LC-MS/MS TMT proteomics; for M1-1 Log2 Median Normalized: sample pair M1-1; for M1-2 Log2 Median Normalized: sample pair M1-2; for M2-1 Log2 Median Normalized: sample pair M2-1; for M2-2 Log2 Median Normalized: sample pair M2-2; for change: up = enriched in ENR+CD, down = enriched in ENR, FDR<0.05 and log fold change cut-off

B1: Q9ERZ0 (protein, UniProt Q9ERZ0 1-503, looked up)
chain: MDMGKGRPRLKLPQMPEAHPQKSCAPDIIGSWSLRNREQLRKRKAEAQGRQTSQWLLGEQKKRKYQRTGKGNKRGRKRQGNVEQKAEPWSQTERERVQEVLVSAEEETEHPGNSATEALPLVPSPTKAVPADQCSEAHQESIQCQERAIQNHSQTHLSPTTCQGIAVLQHSPKMCQDMAEPEVFSPNMCQETAVPQTYPPKALEEMAAAEPLSPKMCQETTVSPNHSSKVPQDMAGPEALSPNMCQEPTVPQEHTLKMCHDVARPEVLSPKTHQEMAVPKAFPCVTPGDAAGLEGCAPKALPQSDVAEGCPLDTTPTSVTPEQTTSDPDLGMAVTEGFFSEARECTVSEGVSTKTHQEAVEPEFISHETYKEFTVPIVSSQKTIQESPEPEQYSPETCQPIPGPENYSLETCHEMSGPEDLSIKTCQDREEPKHSLPEGAQKVGGAQGQDADAQDSENAGAFSQDFTEMEEENKADQDPEAPASPQGSQETCPENGIYSSALF
modifications: full-length
For B1, the “Average logFC” value was −1.361, the “M1-1 Log2 Median Normalized” value was −1.833 and the “M1-2 Log2 Median Normalized” value was −1.41. For the same molecule, the “M2-1 Log2 Median Normalized” value was −1.0155, the “M2-2 Log2 Median Normalized” value was −1.185 and the change was “down”.

B2: Q9JHT5 (protein, UniProt Q9JHT5 1-344, looked up)
chain: MAAGCCGVKKQKLSSSPPSGSGGGGGASSSSHCSGESQCRAGELGLGGAGTRLNGLGGLSGGGGSGGGGGCPLSPPQGCGGGGGGGGGGGSGSGGGGISLSPPLSCGVGTLLSTPAAATASSPSSSSSSPGSRKMVVSAEMCCFCFDVLYCHLYGYQQPRTPRFTNEPYPLFVTWKIGRDKRLRGCIGTFSAMNLHSGLREYTLTSALKDSRFPPMTRDELPRLFCSVSLLTNFEDVCDYLDWEVGVHGIRIEFINEKGSKRTATYLPEVAKEQGWDHIQTIDSLLRKGGYKAPITNEFRKTIKLTRYRSEKMTLSYAEYLAHRQHHHFQNGIGHPLPPYNHYS
modifications: full-length
For B2, the “Average logFC” value was 1.464, the “M1-1 Log2 Median Normalized” value was 1.463 and the “M1-2 Log2 Median Normalized” value was 1.751. The “M2-1 Log2 Median Normalized” value was 1.5015, the “M2-2 Log2 Median Normalized” value was 0.056 and the change was “up”.

B3: Q9JIB0 (protein, UniProt Q9JIB0 1-185, looked up)
chain: MEPNRNCPLFGGAFSAILPTGAIDVSDLRPVPDNQEVFCHPVTDQSLIIELLELQAHVQGEAAARYHFEDVGRVQGARAVHVLSVQPLCLENLSLRGCCQDAWSLSGKQQVAKENQQVAKDVTLHQALLRLPQYQTDLLLTFNQPPCHSRSLGPENLSCPPWSLSNFEQLVTSLTLHDPNLFGPQ
modifications: full-length
In the case of B3, the “Average logFC” value is reported as −1.426, the “M1-1 Log2 Median Normalized” value is reported as −1.2 and the “M1-2 Log2 Median Normalized” value is reported as −1.555. For the same molecule, the “M2-1 Log2 Median Normalized” value was −1.6355, the “M2-2 Log2 Median Normalized” value was −1.315 and the change was “down”.

B4: Q9JJ78 (protein, UniProt Q9JJ78 1-330, looked up)
chain: MEGINNFKTPNKSEKRKSVLCSTPCVNIPASPFMQKLGFGTGVSVYLMKRSPRGLSHSPWAVKKISLLCDDHYRTVYQKRLTDEAKILKNLNHPNIIGYRAFTEASDGSLCLAMEYGGEKSLNDLIEERNKDSGSPFPAAVILRVALHMARGLKYLHQEKKLLHGDIKSSNVVIKGDFETIKICDVGVSLPLDENMTVTDPEACYIGTEPWKPKEALEENGIITDKADVFAFGLTLWEMMTLCIPHVNLPDDDVDEDATFDESDFDDEAYYAALGTRPSINMEELDDSYQKAIELFCVCTNEDPKDRPSAAHIVEALELDGQCCGLSSKH
modifications: full-length
B4 was tested, and the “Average logFC” value was −1.167, the “M1-1 Log2 Median Normalized” value was −1.497 and the “M1-2 Log2 Median Normalized” value was −0.959. The “M2-1 Log2 Median Normalized” value was −0.7695, the “M2-2 Log2 Median Normalized” value was −1.442 and the change was “down”.

B5: Q9JJK5 (protein, UniProt Q9JJK5 1-391, looked up)
chain: MEPEPQPEPVTLLVKSPNQRHRDLELSGDRSWSVSRLKAHLSRVYPERPRPEDQRLIYSGKLLLDHQCLQDLLPKQEKRHVLHLVCNVKNPSKMPETSTKGAESTEQPDNSNQTQHPGDSSSDGLRQREVLRNLSPSGWENISRPEAVQQTFQGLGPGFSGYTTYGWLQLSWFQQIYARQYYMQYLAATAASGTFVPTPSAQEIPVVSTPAPAPIHNQFPAENQPANQNAAAQAVVNPGANQNLRMNAQGGPLVEEDDEINRDWLDWTYSAATFSVFLSILYFYSSLSRFLMVMGATVVMYLHHVGWFPFRQRPVQNFPDDGGPRDAANQDPNNNLQGGMDPEMEDPNRLPPDREVLDPEHTSPSFMSTAWLVFKTFFASLLPEGPPALAN
modifications: full-length
B5 was tested, and the “Average logFC” value was 1.444, the “M1-1 Log2 Median Normalized” value was 1.863 and the “M1-2 Log2 Median Normalized” value was 0.766. The “M2-1 Log2 Median Normalized” value was 1.1435, the “M2-2 Log2 Median Normalized” value was 2.005 and the change was “up”.

B6: Q9JME5 (protein, UniProt Q9JME5 1-1082, looked up)
chain: MSAAPAYSEDKGGSAGPGEPEYGHDPASGGIFSSDYKRHDDLKEMLDTNKDSLKLEAMKRIVAMIARGKNASDLFPAVVKNVACKNIEVKKLVYVYLVRYAEEQQDLALLSISTFQRGLKDPNQLIRASALRVLSSIRVPIIVPIMMLAIKEAASDMSPYVRKTAAHAIPKLYSLDSDQKDQLIEVIEKLLADKTTLVAGSVVMAFEEVCPERIDLIHKNYRKLCNLLIDVEEWGQVVIISMLTRYARTQFLSPTQNESLLEENPEKAFYGSEEDEAKGPGSEEAATAALPARKPYVMDPDHRLLLRNTKPLLQSRSAAVVMAVAQLYFHLAPKAEVGVIAKALVRLLRSHSEVQYVVLQNVATMSIKRRGMFEPYLKSFYIRSTDPTQIKILKLEVLTNLANETNIPTVLREFQTYIRSMDKDFVAATIQAIGRCATNIGRVRDTCLNGLVQLLSNRDELVVAESVVVIKKLLQMQPAQHGEIIKHLAKLTDNIQVPMARASILWLIGEYCEHVPKIAPDVLRKMAKSFTAEEDIVKLQVINLAAKLYLTNSKQTKLLTQYVLSLAKYDQNYDIRDRARFTRQLIVPSEQGGALSRHAKKLFLAPKPAPILESSFKDRDHFQLGSLSHLLNAKATGYQELPDWPEEAPDPSVRNVEVPEWTKCSNREKRKEKEKPFYSDSEGESGPTESADSEPESESESESKSSSGSGSGESSSESDNEEEDEEKGGGSESEQSEEEDEKKKKTKKKKASEGHREGSSSEEGSDSSSSSESEVTSESEEEQVEPASWRKKTPPGSKSAPVAKEISLLDLEDFTPPSVQPVSPPMVVSTSLAADLEGLTLTDSSLVPSLLSPVSSIGRQELLHRVAGEGLSVDYAFSRQPFSGDPHMVSLHIYFSNNSETPIKGLHVGTPKLPAGISIQEFPEIESLAPGESTTTVMGINFCDSTQAANFQLCTQTRQFYVSIQPPVGELMAPVFMSENEFKKEQGKLTGMNEITEKLTLPDTCRSDHMVVQKVTATANLGRVPCGTSDEYRFAGRTLTSGSLVLLTLDARAAGAAQLTVNSEKMVIGTMLVKDVIQALTQ
modifications: full-length
With B6 the “Average logFC” value was −1.256, the “M1-1 Log2 Median Normalized” value was −1.059 and the “M1-2 Log2 Median Normalized” value was −1.31. For the same molecule, the “M2-1 Log2 Median Normalized” value was −1.1945, the “M2-2 Log2 Median Normalized” value was −1.459 and the change was “down”.

B7: Q9JMH7 (protein, UniProt Q9JMH7 1-418, looked up)
chain: MEEVPPYSLSSTLFQQEEQSGVTYRIPALLYLPPTHTFLAFAEKRTSVRDEDAACLVLRRGLMKGRSVQWGPQRLLMEATLPGHRTMNPCPVWEKNTGRVYLFFICVRGHVTERCQIVWGKNAARLCFLCSEDAGCSWGEVKDLTEEVIGSEVKRWATFAVGPGHGIQLHSGRLIIPAYAYYVSRWFLCFACSVKPHSLMIYSDDFGVTWHHGKFIEPQVTGECQVAEVAGTAGNPVLYCSARTPSRFRAEAFSTDSGGCFQKPTLNPQLHEPRTGCQGSVVSFRPLKMPNTYQDSIGKGAPATQKCPLLDSPLEVEKGAETPSATWLLYSHPTSKRKRINLGIYYNRNPLEVNCWSRPWILNRGPSGYSDLAVVEEQDLVACLFECGEKNEYERIDFCLFSDHEVLSCEDCTSPSSD
modifications: full-length
In the case of B7, the “Average logFC” value is reported as −1.61, the “M1-1 Log2 Median Normalized” value is reported as −1.209 and the “M1-2 Log2 Median Normalized” value is reported as −1.761. For the same molecule, the “M2-1 Log2 Median Normalized” value was −1.8685, the “M2-2 Log2 Median Normalized” value was −1.601 and the change was “down”.

B8: Q9QXD6 (protein, UniProt Q9QXD6 1-338, looked up)
chain: MANHAPFETDISTLTRFVMEQGRKAQGTGELTQLLNSLCTAIKAISSAVRQAGIAQLYGIAGSTNVTGDQVKKLDILSNDLVINMLKSSYATCVLVSEENTNAIIIEPEKRGKYVVCFDPLDGSSNIDCLVSIGTIFGIYRKKSTDEPSEKDALQPGRDLVAAGYALYGSATMLVLAMDCGVNCFMLDPSIGEFIMVDRDVKMKKKGNIYSLNEGYAKDFDPAINEYLQRKKFPPDGSAPYGARYVGSMVADIHRTLVYGGIFLYPANKKSPSGKLRLLYECNPIAYVMEKAGGLATTGDKDILDIVPTEIHQKAPVVMGSSEDVQEFLEIYRKHKAK
modifications: full-length
B8 was tested, and the “Average logFC” value was −1.895, the “M1-1 Log2 Median Normalized” value was −1.892 and the “M1-2 Log2 Median Normalized” value was −2.49. The “M2-1 Log2 Median Normalized” value was −2.2475, the “M2-2 Log2 Median Normalized” value was −0.495 and the change was “down”.

B9: Q9QXE2 (protein, UniProt Q9QXE2 1-573, looked up)
chain: MDPQGIVKAFPKRKKSHADLSSKALAKIPKREVGEARGWLSSLRAHIMPAGIGRARAELFEKQIIHHGGQVCSAQAPGVTHIVVDEDMDYERALRLLRLPQLPPGAQLVKSTWLSLCLQEGRLTDTEGFSLPMPKRSLDEPQPSKSGQDASAPGTQRDLPRTTLSLSPPHTRAVSPPPTAEKPSRTQAQLSSEDETSDGEGPQVSSADLQALITGHYPTPPEEDGGPDPAPEALDKWVCAQPSSQKATNYNLHITEKLEVLAKAYSVQGDKWRALGYAKAINALKSFHKPVSSYQEACSIPGIGKRMAEKVMEILESGHLRKLDHISDSVPVLELFSNIWGAGTKTAQMWYHQGFRNLEDLQSLGSLTAQQAIGLKHYDDFLDRMPREEAAEIEQTVRISAQAFNPGLLCVACGSYRRGKMTCGDVDVLITHPDGRSHRGIFSCLLDSLRQQGFLTDDLVSQEENGQQQKYLGVCRLPGPGKRHRRLDIIVVPYCEFACALLYFTGSAHFNRSMRALAKTKGMSLSEHALSAAVVRNSQGVKVGPGQVLPTPTEKDVFKHLGLPYREPAERDW
modifications: full-length
B9 was tested, and the “Average logFC” value was 1.478, the “M1-1 Log2 Median Normalized” value was 0.861 and the “M1-2 Log2 Median Normalized” value was 1.509. For the same molecule, the “M2-1 Log2 Median Normalized” value was 1.4485, the “M2-2 Log2 Median Normalized” value was 2.093 and the change was “up”.
